# Patent US20110135634A1, “METHODS OF INHIBITING INFECTION BY DIVERSE SUBTYPES OF DRUG-RESISTANT HIV-1” (priority 2007, published 2011)
# Values joined by “and” are separate entries in the source; they are usually repeats but may differ in a detail not shown here. Equal values may be shown once. Read-outs that look alike come from different tables or passages of the source.
# How the values were obtained:
# [1] = system: CCR5-tropic envelope-complemented luciferase-expressing HIV-1 reporter viruses; assay: PhenoSense HIV Entry Assay on U87-CD4/CCR5 cells; assay type: cell-based; set-up: key to Mean FC / FC: fold change in drug susceptibility vs DUAL (92HT594) reference envelope
# Description: Of these, 10 isolates were derived from viruses with high-level resistance to protease (PR) and/or reverse transcriptase (RT) inhibitors. Four additional isolates incorporated the major enfuvirtide-conferring mutations in an HIV-1JR-CSF envelope background. […] EC50 values for test isolates were divided by the EC50 for a well-characterized reference virus (HIV-192HT594) to yield fold-change (FC) values.
# A PhenoSense™ HIV Entry assay (Whitcomb et al, Antimicrobial Agents and Chemotherapy, 51:566, 2007) has been developed by modifying the PhenoSense HIV assay and is illustrated schematically in FIGS. 21 and 22. The assay uses nucleic acid amplification (RT-PCR) to derive HIV envelope sequences (gp160) from HIV(+) patient plasma samples or other sources. Amplified envelope sequences were incorporated into a proprietary expression vector (pCXAS) using conventional cloning methods. Envelope expression vectors were prepared as large pools of sequences (>200) in order to assure that the diversity of sequences accurately represents the diversity of viral quasispecies in the specimen at the time of sample collection. Recombinant HIV-1 stocks expressing virus envelope proteins were prepared by co-transfecting HEK293 cells with a HIV-1 genomic viral vector and an appropriate envelope expression vector. The HIV-1 genomic vector is replication defective and contains a luciferase expression cassette within a deleted region of the HIV envelope gene. Following transfection, recombinant virus particles were harvested and used to inoculate two U87 cell lines expressing CD4 and the CCR5 or CXCR4 co-receptor (U87-CD4/CCR5 and U87-CD4/CXCR4 cells, respectively). […] Drug susceptibility was measured by comparing the amount of luciferase activity produced in the presence of entry inhibitors to the amount of luciferase activity produced in absence of entry inhibitors. Entry inhibitor activity was evaluated at ten serial drug concentrations. Data were analyzed by plotting percent inhibition of luciferase activity vs. log10 drug concentration.
# The 31 viruses used in this study were CCR5-tropic and were selected from Monogram Biosciences' Specimen Library. The panel included four of each subtypes A, B, C, D, F, and G viruses and three subtype J virus (Table 17). Of the 31 viruses examined, 17 were wildtype (WT), 10 were resistant to protease (PR) and/or reverse transcriptase (RT) inhibitors and 4 were enfuvirtide-resistant site-directed mutants (SDMs). The enfuvirtide-resistant viruses included envelopes with amino acid substitutions at positions 36-38 (GIV motif) and 43 within heptad repeat 1 (HR-1) and were introduced by site-directed mutagenesis into gp41 transmembrane (TM) sequence of the JRCSF envelope, as shown in Table 16.
# DUAL (92HT594) is an envelope expression vector derived from a drug-naive reference virus that can efficiently infect cells expressing both the CD4 receptor and the CCR5 or CXCR4 co-receptor molecules on the cell surface. The DUAL envelope control was used to determine the fold changes in drug susceptibility of samples evaluated on U87-CD4/CCR5 cells. The DUAL control was also tested in each assay batch to evaluate and monitor assay performance over time.
# JRCSF is an envelope expression vector derived from a drug-naive reference virus that can efficiently infect cells expressing both the CD4 receptor and the CCR5 co-receptor molecules on the cell surface.
# Susceptibility data were analyzed by plotting percent inhibition of luciferase activity vs. log10 drug concentration.
# [2] = biological target: CCR5 (Homo sapiens, UniProt P51681); details: cited from earlier work
# [3] = system: HIV-1 (CCR5-tropic virus); assay type: in vivo; details: for Mean log10 HIV RNA change: Day 10 post-treatment
# Description: The efficacy data collected during the study were changes in viral load and CD4 counts over time. The safety data collected during the study were serious adverse events (SAEs)/adverse events (AEs) and changes in laboratory parameters (hematology, chemistry), physical exam, viral tropism and ECGs over time.
# All patients were screened prior to the study for the presence of virus that utilizes only CCR5 as the entry coreceptor, i.e., CCR5-tropic virus.
# The primary efficacy endpoint was the reduction in plasma HIV RNA level as measured by the Roche Amplicor™ Assay. The primary efficacy endpoint is the maximum change from baseline in viral load, defined as HIV-1 copies/ml, as measured by the Roche Amplicor™ Assay.
# [4] = system: CCR5 lymphocytes; assay type: in vivo, human
# Procedure: Whole blood specimens were combined separately with the indicated phycoerythrin-labeled anti-CCR5 antibodies or with appropriate isotype-control antibodies. Erythocytes were lysed and leukocytes were stabilized using the ImmunoPrep Reagent System (Beckman Coulter), and the cells were analyzed on a TQ Prep™ flow cytometry workstation (Beckman Coulter). Data were expressed as the percent of CCR5 cells relative to all cells gated in the analysis.
# For up to 60 days post-treatment, at the times indicated in FIG. 6, blood was collected and analyzed for CCR5 lymphocyte levels.
# Background binding of isotype control antibodies was unchanged.
# [5] = system: HIV-1JR-CSF; assay: hu-PBL-SCID mouse model of HIV-1 infection (FIG. 5); assay type: in vivo, SCID mice; details: multiple doses after steady state viral levels
# Procedure: SCID mice were reconstituted with normal human peripheral blood mononuclear cells and infected 2 weeks later with HIV-1JR-CSF. Multiple doses of PRO 140 were administered following attainment of steady state viral levels. Plasma viral loads pre- and post-injection are indicated.
# [6] = system: primary R5 HIV-1 isolates JR-FL and Case C 1/85 (CC1/85); assay: In vitro resistance selection and susceptibility testing on PBMC; assay type: cell-based; details: p24 ELISA
# Procedure: For susceptibility testing, viruses were cultured in vitro on stimulated PBMC. In the presence and absence of serially diluted drug, and the extent of viral replication was determined by p24 ELISA.
# Chain of CCR5 (P51681 whole entry): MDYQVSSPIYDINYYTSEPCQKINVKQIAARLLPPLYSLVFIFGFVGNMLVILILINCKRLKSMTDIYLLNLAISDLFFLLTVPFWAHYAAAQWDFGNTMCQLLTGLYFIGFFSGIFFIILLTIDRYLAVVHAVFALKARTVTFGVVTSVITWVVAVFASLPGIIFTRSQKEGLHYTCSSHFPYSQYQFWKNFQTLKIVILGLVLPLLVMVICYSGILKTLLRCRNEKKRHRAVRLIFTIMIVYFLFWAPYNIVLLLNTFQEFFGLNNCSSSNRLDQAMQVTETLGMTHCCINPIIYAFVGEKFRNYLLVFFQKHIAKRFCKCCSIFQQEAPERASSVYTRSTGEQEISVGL
molecule,measurement,setting,value
"PRO 140: humanized IgG4,κ anti-CCR5 mAb being developed for HIV-1 therapy (antibody, chains of the INN, looked up, V domains shown) VH: EVQLVESGGGLVKPGGSLRLSCAASGYTFSNYWIGWVRQAPGKGLEWIGDIYPGGNYIRNNEKFKDKTTLSADTSKNTAYLQMNSLKTEDTAVYYCGSSFGSNYVFAWFTYWGQGTLVTVSS VL: DIVMTQSPLSLPVTPGEPASISCRSSQRLLSSYGHTYLHWYLQKPGQSPQLLIYEVSNRFSGVPDRFSGSGSGTDFTLKISRVEAEDVGVYYCSQSTHVPLTFGQGTKVEIK",median IC50,[1]; 27 viruses representing different genetic subtypes,0.44 µg/mL
same,range of FC values,"[1]; 31 test viruses, relative to HIV-1 92HT594",0.28-4.1
same,mean EC50,[1]; all 31 test viruses,0.50 ± 0.27 µg/mL
same,Mean FC,"[1]; all 31 test viruses, relative to reference virus HIV-1 92HT594",1.5±0.8
same,FC,[1]; envelopes from PR/RT-resistant viruses,1.4±1.0
same,mean IC50,[1]; four enfuvirtide-resistant SDMs,0.82 µg/mL
same,"IC50, Average",[1]; panel of 31 viruses,0.5096 µg/mL
same,"IC50, Max",[1]; panel of 31 viruses,1.4329 µg/mL
same,"IC50, Median",[1]; panel of 31 viruses,0.4418 µg/mL
same,"IC50, Min",[1]; panel of 31 viruses,0.0955 µg/mL
same,Mean FC,[1]; subtype A,1.0±0.4
same,Mean FC,[1]; subtype B,1.5±0.2
same,Mean FC,[1]; subtype C,0.94±0.5
same,Mean FC,[1]; subtype D,1.4±0.6
same,Mean FC,[1]; subtype F,1.5±0.7
same,Mean FC,[1]; subtype G,1.8±1.6
same,Mean FC,[1]; subtype J,1.2±0.4
same,Block Natural Activity of CCR5,[2]; Table 2 summary,No
same,Development of Resistance In Vitro,[2]; Table 2 summary,None at 40 weeks
same,Viral Cross-Resistance,[2]; Table 2 summary,Limited
same,tolerability,[2],No Toxicity
same,individual reductions of viral load,[3]; 2.0 mg/kg and 5.0 mg/kg dose levels,up to 2.5 log10 and ≤ 99.7%
same,AUC viral load,[3]; 5 mg/kg,significantly decreased
same,Maximum decrease of viral load at any time,[3]; 5 mg/kg,−1.8 log
same,Patients with <400 copies/mL (anytime),[3]; 5 mg/kg,4/10
same,Patients with >1 log decrease (anytime),[3]; 5 mg/kg,10/10
same,time of return of viral load to baseline,[3]; 5.0 mg/kg cohort,approximately 30 days
same,time to suppression of mean viral load by 1.0 log10 (90%),[3]; 5.0 mg/kg cohort,within four days
same,time viral load persisted at or below the 1.0 log10 level of reduction,[3]; 5.0 mg/kg cohort,two to three weeks
same,mean increase in CD4+ lymphocytes,"[3]; 5 mg/kg, day 8",129 cells/μL
same,Viral load decrease,"[3]; 5 mg/kg, day 22",−0.73
same,Mean log10 HIV RNA change,[3]; 0.5 mg/kg,−0.37 log10
same,Mean log10 HIV RNA change,[3]; 2.0 mg/kg,−1.04 log10
same,Mean log10 HIV RNA change,[3]; 5.0 mg/kg,−1.70 log10
same,response rate (percentage of patients with a ≧1 log10 decrease in HIV RNA at any time),[3]; highest dose cohort,100%
same,overall number of CCR5 lymphocytes as measured by CTC5 binding,"[4]; in vivo, 2 mg/kg",no decrease
same,time CCR5 lymphocytes effectively coated without cellular depletion,[4]; single 2 mg/kg dose,two weeks
same,time cells remain partially coated,[4]; single 2 mg/kg dose,> 4 weeks
same,time cells remain partially coated,[4]; single 5 mg/kg dose,> 60 days
same,control of viral replication (plasma viral loads),[5],prolonged control of viral replication
same,inhibition of SCH-D escape mutants,[6],efficiently inhibited
